Kd data for two molecules are collected here from article PMC11306395, “Structural basis for the interaction between human coronavirus HKU1 spike receptor binding domain and its receptor TMPRSS2” (Cell Discovery, 2024).

The target of the assay is T1, transmembrane serine protease 2 (TMPRSS2) ectodomain (human, UniProt O15393 106-492).
T1 construct: Transmembrane serine protease 2 (TMPRSS2), ectodomain; also called TMRPSS2; source: purified
The assay is described as follows: BLI; bio-layer interferometry titrations of RBD-TMPRSS2; which partner was immobilised and the conditions are not told. As to conditions: both partners purified. Background: BLI is a label-free optical method that tracks binding on a fibre tip over time.

T1 sequence (O15393 106-492): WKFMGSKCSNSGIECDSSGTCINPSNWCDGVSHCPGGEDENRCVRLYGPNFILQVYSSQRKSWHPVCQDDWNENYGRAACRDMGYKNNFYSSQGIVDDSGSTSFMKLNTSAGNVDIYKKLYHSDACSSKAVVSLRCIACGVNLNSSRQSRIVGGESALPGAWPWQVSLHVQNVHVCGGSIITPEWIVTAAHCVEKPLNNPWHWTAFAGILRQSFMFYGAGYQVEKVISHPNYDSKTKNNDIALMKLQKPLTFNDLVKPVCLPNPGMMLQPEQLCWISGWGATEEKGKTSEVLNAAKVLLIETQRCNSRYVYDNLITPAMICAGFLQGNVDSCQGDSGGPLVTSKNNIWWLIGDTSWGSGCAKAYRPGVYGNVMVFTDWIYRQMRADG

B1: HKU1-B (1B) spike S1 receptor-binding domain (domain or fragment)
chain: NLPDCDIDNWLNNVSVPSPLNWERRIFSNCNFNLSTLLRLVHVDSFSCNNLDKSKIFGSCFNSITVDKFAIPNRRRDDLQLGSSGFLQSSNYKIDISSSSCQLYYSLPLVNVTINNFNPSSWNRRYGFGSFNLSSYDVVYSDHCFSVNSDFCPCADPSVVNSCAKSKPPSAICPAGTKYRHCDLDTTLYVKNWCRCSCLPDPISTYSPNTCPQKKVVVGIGEHCPGLGINEEKCGTQLNHSSCFCSPDAFLGWSFDSCISNNRCNIFSNFIFNGINSGTTCSNDL
modifications: N-glycosylated; disulfides C504-C518 and C520-C533. Construct limits are only in the schematic (Fig. 1a), so they are taken from the paper's own deposited entity 8YQQ; the assayed construct may …
For orientation: Kd means the free concentration of one partner at which half of the binding sites on the other are occupied at equilibrium, for simple one-to-one binding. Higher therefore signals lower affinity. For B1, the affinity, expressed as Kd, was 170 nM.

B2: HKU1-A (1A) spike S1 receptor-binding domain (domain or fragment)
chain: SGFTVKPVATVHRRIPDLPDCDIDKWLNNFNVPSPLNWERKIFSNCNFNLSTLLRLVHTDSFSCNNFDESKIYGSCFKSIVLDKFAIPNSRRSDLQLGSSGFLQSSNYKIDTTSSSCQLYYSLPAINVTINNYNPSSWNRRYGFNNFNLSSHSVVYSRYCFSVNNTFCPCAKPSFASSCKSHKPPSASCPIGTNYRSCESTTVLDHTDWCRCSCLPDPITAYDPRSCSQKKSLVGVGEHCAGFGVDEEKCGVLDGSYNVSCLCSTDAFLGWSYDTCVSNNRCNIFSNFILNGINSGTTCSNDLLQPNTEVFTDVCVDYDLYGITGQGIFKEVSAVYYNSWQNLLYDSNGNIIGFKDFVTNKTYNIFPCYAG
modifications: N-glycosylated; disulfides C504-C518 and C520-C533. Construct limits are only in the schematic (Fig. 1a), so they are taken from the paper's own deposited entity 8YOY (start and end shown match …)
B2 returned a Kd of 323 nM.
